Where two headings read alike, the source gives them in different places.
Key:
[1] = biological target: α_ΔMPT-ACP construct of the yeast FAS α-subunit (KS-PPT elongated N-terminally by DM1, DM2 and KR) (S. cerevisiae); assay: SEC; Superose 6 Increase 30/100 GL column, TRIS-HCl buffer N100; protein preparations from purifications under native and denaturing conditions (refolded)
[2] = biological target: KS-PPT di-domain construct of the yeast FAS α-subunit (S. cerevisiae); assay: SEC; Superdex 200 Increase 30/100 GL column with calibration curve; KS-PPT di-domain construct
[3] = biological target: KS-PPT di-domain construct of the yeast FAS α-subunit (S. cerevisiae); assay: as above; remark: listed apart in the source

“α_ΔMPT-ACP construct of the yeast FAS α-subunit (KS-PPT elongated N-terminally by DM1, DM2 and KR) (domain or fragment)” gave a stoichiometry N [1] of 2.

Substance “KS-PPT di-domain construct of the yeast FAS α-subunit (domain or fragment)” has a stoichiometry N [2] of 2 and a stoichiometry N [3] of 2.5.
